Patent US11260115B1, “Peptides and combination of peptides for use in immunotherapy against CLL and other cancers” (immatics biotechnologies GmbH, priority 2015, dated 2022)

What follows are substances tested against HLA-A*02:01 (Homo sapiens, UniProt P04439, D140Y/D185E/D98H/E176V/E277Q/G131W/G231S/I119V/I121R/I166T/I218V/L300P/L318F/N151K/N90K/P208A/P217A/Q86G/Q94H/R138H/R169H/T345S) (assay: MHC binding assay (UV-ligand exchange, β2m ELISA, peptide exchange yield)). Conditions: binding to HLA-A*02:01.
Text: Candidate peptides for T cell based therapies according to the present invention were further tested for their MHC binding capacity (affinity). The individual peptide-MHC complexes were produced by UV-ligand exchange, where a UV-sensitive peptide is cleaved upon UV-irradiation, and exchanged with the peptide of interest as analyzed. Only peptide candidates that can effectively bind and stabilize the peptide-receptive MHC molecules prevent dissociation of the MHC complexes. To determine the yield of the exchange reaction, an ELISA was performed based on the detection of the light chain (β2m) of stabilized MHC complexes. The assay was performed as generally described in Rodenko et al. (Rodenko et al., 2006).
96 well MAXISorp plates (NUNC) were coated over night with 2 ug/ml streptavidin in PBS at room temperature, washed 4× and blocked for 1 h at 37° C. in 2% BSA containing blocking buffer. Refolded HLA-A*02:01/MLA-001 monomers served as standards, covering the range of 15-500 ng/ml. Peptide-MHC monomers of the UV-exchange reaction were diluted 100 fold in blocking buffer. Samples were incubated for 1 h at 37° C., washed four times, incubated with 2 ug/ml HRP conjugated anti-β2m for 1 h at 37° C., washed again and detected with TMB solution that is stopped with […]. Absorption was measured at 450 nm. Candidate peptides that show a high exchange yield (preferably higher than 50%, most preferred higher than 75%) are generally preferred for a generation and production of antibodies or fragments thereof, and/or T cell receptors or fragments thereof, as they show sufficient avidity to the MHC molecules and prevent dissociation of the MHC complexes.
Table 11: MHC class I binding scores. Binding of HLA-class I restricted peptides to HLA-A*02:01 was ranged by peptide exchange yield: ≥10%=+; ≥20%=++; ≥50=+++; ≥75%=++++

Peptide Exchange (MHC class I binding score, peptide exchange yield) | Substance
“+” (>10% = +) | 130 (LLVLIPVYL; listed as Homo sapiens) [compound 130]
“+++” (>50 = +++) | 132 (LVYEAIIMV; listed as Homo sapiens) [compound 132]
“++++” (>75% = ++++) | 134 (MLLEHGITLV; listed as Homo sapiens) [compound 134]
“+” (>10% = +) | 135 (MTAGFSTIAGSV; listed as Homo sapiens) [compound 135]
“+++” (>50 = +++) | 137 (NLIKTVIKL; listed as Homo sapiens) [compound 137]
“+++” (>50 = +++) | 139 (NLTDVVEKL; listed as Homo sapiens) [compound 139]
“++” (>20% = ++) | 141 (QILSEIVEA; listed as Homo sapiens) [compound 141]
“++” (>20% = ++) | 142 (QLDEPAPQV; listed as Homo sapiens) [compound 142]
“+++” (>50 = +++) | 143 (QLLDTYFTL; listed as Homo sapiens) [compound 143]
“+++” (>50 = +++) | 149 (SLDNGGYYI; listed as Homo sapiens) [compound 149]
“+++” (>50 = +++) | 151 (SLFDSAYGA; listed as Homo sapiens) [compound 151]
“+++” (>50 = +++) | 153 (SLLAELHVL; listed as Homo sapiens) [compound 153]
“+++” (>50 = +++) | 157 (SLNIRDFTM; listed as Homo sapiens) [compound 157]
“+++” (>50 = +++) | 159 (SLQEEKLIYV; listed as Homo sapiens) [compound 159]
“+++” (>50 = +++) | 163 (SQLDISEPYKV; listed as Homo sapiens) [compound 163]
“+++” (>50 = +++) | 164 (SVHKGFAFV; listed as Homo sapiens) [compound 164]
“++” (>20% = ++) | 166 (TLDPNQVSL; listed as Homo sapiens) [compound 166]

Peptide Exchange (MHC class I binding score, peptide exchange yield) | Substance
“+++” (>50 = +++) | 167 (TLDTSKLYV; listed as Homo sapiens) [compound 167]
“++++” (>75% = ++++) | 168 (YLLDQSFVM; listed as Homo sapiens) [compound 168]
“+++” (>50 = +++) | 170 (TLTFRVETV; listed as Homo sapiens) [compound 170]
“+++” (>50 = +++) | 171 (TLVPPAALISI; listed as Homo sapiens) [compound 171]
“++” (>20% = ++) | 173 (TVIENIHTI; listed as Homo sapiens) [compound 173]
“+++” (>50 = +++) | 176 (VLAEQNIIPSA; listed as Homo sapiens) [compound 176]
“+++” (>50 = +++) | 179 (VLLGLEMTL; listed as Homo sapiens) [compound 179]
“++” (>20% = ++) | 180 (LLKDGPEIGL; listed as Homo sapiens) [compound 180]
“+++” (>50 = +++) | 181 (VLLSIPFVSV; listed as Homo sapiens) [compound 181]
“+++” (>50 = +++) | 182 (VLLSVPGPPV; listed as Homo sapiens) [compound 182]
“+++” (>50 = +++) | 183 (VLMPTVYQQGV; listed as Homo sapiens) [compound 183]
“+++” (>50 = +++) | 184 (VLSHNLYTV; listed as Homo sapiens) [compound 184]
“++” (>20% = ++) | 185 (VMDDQRDLI; listed as Homo sapiens) [compound 185]
“++++” (>75% = ++++) | 186 (VMDPTKILI; listed as Homo sapiens) [compound 186]
“++++” (>75% = ++++) | 187 (VMDTHLVNI; listed as Homo sapiens) [compound 187]
“+++” (>50 = +++) | 189 (VMLEMTPEL; listed as Homo sapiens) [compound 189]

Further lines, the substance ahead of its results:

Substance | Peptide Exchange (MHC class I binding score, peptide exchange yield)
131 (LQALEVLKI; listed as Homo sapiens) [compound 131] | “+” (>10% = +)
133 (YLLSGDISEA; listed as Homo sapiens) [compound 133] | “+++” (>50 = +++)
136 (NLDKLWTLV; listed as Homo sapiens) [compound 136] | “++” (>20% = ++)
138 (NLLDIDAPVTV; listed as Homo sapiens) [compound 138] | “+++” (>50 = +++)
140 (QIAELPATSV; listed as Homo sapiens) [compound 140] | “+++” (>50 = +++)
145 (SALDTITTV; listed as Homo sapiens) [compound 145] | “+++” (>50 = +++)
146 (SIIEGPIIKL; listed as Homo sapiens) [compound 146] | “+++” (>50 = +++)
147 (SILETVATL; listed as Homo sapiens) [compound 147] | “+++” (>50 = +++)
148 (SIVASLITV; listed as Homo sapiens) [compound 148] | “+++” (>50 = +++)
150 (SLFDQPLSII; listed as Homo sapiens) [compound 150] | “+++” (>50 = +++)
152 (SLIRILQTI; listed as Homo sapiens) [compound 152] | “+++” (>50 = +++)
155 (SLMLEVPAL; listed as Homo sapiens) [compound 155] | “+++” (>50 = +++)
156 (SLNIGDVQL; listed as Homo sapiens) [compound 156] | “+++” (>50 = +++)
158 (SLPEAPLDV; listed as Homo sapiens) [compound 158] | “+++” (>50 = +++)
160 (SLSFLVPSL; listed as Homo sapiens) [compound 160] | “+++” (>50 = +++)
161 (SMDDGMINV; listed as Homo sapiens) [compound 161] | “+++” (>50 = +++)
162 (SMKDDLENV; listed as Homo sapiens) [compound 162] | “++” (>20% = ++)
165 (TLDDDLDTV; listed as Homo sapiens) [compound 165] | “++” (>20% = ++)
169 (TLLLGLTEV; listed as Homo sapiens) [compound 169] | “+++” (>50 = +++)
172 (TLYDMLASI; listed as Homo sapiens) [compound 172] | “+++” (>50 = +++)
174 (VLAELPIIVV; listed as Homo sapiens) [compound 174] | “+++” (>50 = +++)
175 (FTVPRVVAV; listed as Homo sapiens) [compound 175] | “+++” (>50 = +++)
177 (VLDDRELLL; listed as Homo sapiens) [compound 177] | “+++” (>50 = +++)
178 (VLFFNVQEV; listed as Homo sapiens) [compound 178] | “+++” (>50 = +++)
188 (VMGDIPAAV; listed as Homo sapiens) [compound 188] | “++” (>20% = ++)
190 (VVMGTVPRL; listed as Homo sapiens) [compound 190] | “+++” (>50 = +++)
191 (YIFDGSDGGV; listed as Homo sapiens) [compound 191] | “+++” (>50 = +++)
